We go through one protein from PMC13064919, “Novel extracellular vesicle release pathway facilitated by toxic superoxide dismutase 1 oligomers” (Neurobiology of disease, 2026).

The stoichiometry N is a count of units in the complex or per binding partner.

This data set deals with the molecule itself. Put plainly: reducing SDS-PAGE western blot; NSC-34 lysate, SDS-PAGE loading dye with 0.1 M DTT, 12% gel. In general terms: A western blot detects proteins with antibodies after separation by electrophoresis.

B1: Cavin-1 (natural protein, mouse (endogenous in NSC-34), UniProt O54724 1-392, looked up)
chain: MEDVTLHIVERPYSGFPDASSEGPEPTQGEARATEEPSGTGSDELIKSDQVNGVLVLSLLDKIIGAVDQIQLTQAQLEERQAEMEGAVQSIQGELSKLGKAHATTSNTVSKLLEKVRKVSVNVKTVRGSLERQAGQIKKLEVNEAELLRRRNFKVMIYQDEVKLPAKLSVSKSLKESEALPEKEGDELGEGERPEDDTAAIELSSDEAVEVEEVIEESRAERIKRSGLRRVDDFKKAFSKEKMEKTKVRTRENLEKTRLKTKENLEKTRHTLEKRMNKLGTRLVPVERREKLKTSRDKLRKSFTPDHVVYARSKTAVYKVPPFTFHVKKIREGEVEVLKATEMVEVGPEDDEVGAERGEATDLLRGSSPDVHTLLEITEESDAVLVDKSDSD
notes: Cavin-1, endogenous in NSC-34 cells, detected by western blot; source: endogenous, NSC-34 lysate (RIPA buffer)
B1: the “stoichiometry N” value is 2.
